Experimental data: US20240150447A1 (CEPHALON, published 2024)
Changes are numbered by the printed parent chain. Names may count otherwise.

B1: hIgG1 M252Y/S254T/T256E/N434W, O4 VH with Ab6 light chain (antibody)
heavy: QVQLRQSGPGLVQPSQSLSITCTVSGFSLTSYGVHWFRQSPGKGLEWLGVIWSGGSTDYNAAFISRLSISKDNSKSQVFFKMNSLQANDTAIYYCARNRGRYNYYAMDYWGQGTSVTVSSASTKGPSVFPLAPSSKSTSGGTAALGCLVKDYFPEPVTVSWNSGALTSGVHTFPAVLQSSGLYSLSSVVTVPSSSLGTQTYICNVNHKPSNTKVDKKVEPKSCDKTHTCPPCPAPELLGGPSVFLFPPKPKDTLYITREPEVTCVVVDVSHEDPEVKFNWYVDGVEVHNAKTKPREEQYNSTYRVVSVLTVLHQDWLNGKEYKCKVSNKALPAPIEKTISKAKGQPREPQVYTLPPSRDELTKNQVSLTCLVKGFYPSDIAVEWESNGQPENNYKTTPPVLDSDGSFFLYSKLTVDKSRWQQGNVFSCSVMHEALHWHYTQKSLSLSPG
light: not shown
notes: hIgG1
B2: hIgG1 M252Y/T256H/V308P/N434W, O4 VH with Ab6 light chain (antibody)
heavy: B1 heavy with T257S, E259H, V311P
light: not shown
notes: hIgG1
B3: hIgG1 M252Y/T256E/V308P/N434W, O4 VH with Ab6 light chain (antibody)
heavy: B1 heavy with T257S, V311P
light: not shown
notes: hIgG1
B4: hIgG1 M252Y/V308P/N434W, O4 VH with Ab6 light chain (antibody)
heavy: B1 heavy with T257S, E259T, V311P
light: not shown
notes: hIgG1
B5: hIgG1 M252Y/T256D/V308P/N434W, O4 VH with Ab6 light chain (antibody)
heavy: B1 heavy with T257S, E259D, V311P
light: not shown
notes: hIgG1
B6: hIgG1 M252Y/T256A/V308P/N434W, O4 VH with Ab6 light chain (antibody)
heavy: B1 heavy with T257S, E259A, V311P
light: not shown
notes: hIgG1
B7: hIgG1 M252Y/T256V/V308P/N434W, O4 VH with Ab6 light chain (antibody)
heavy: B1 heavy with T257S, E259V, V311P
light: not shown
notes: hIgG1
B8: hIgG1 M252Y/T256V/V308P/N434F, O4 VH with Ab6 light chain (antibody)
heavy: B1 heavy with T257S, E259V, V311P, W437F
light: not shown
notes: hIgG1
B9: hIgG1 M252Y/T256L/V308P/N434W, O4 VH with Ab6 light chain (antibody)
heavy: B1 heavy with T257S, E259L, V311P
light: not shown
notes: hIgG1
B10: hIgG1 M252Y/T256S/V308P/N434W, O4 VH with Ab6 light chain (antibody)
heavy: B1 heavy with T257S, E259S, V311P
light: not shown
notes: hIgG1
B11: hIgG1 M252Y/T256M/V308P/N434W, O4 VH with Ab6 light chain (antibody)
heavy: B1 heavy with T257S, E259M, V311P
light: not shown
notes: hIgG1
B12: hIgG1 M252Y/V308P/N434Y, O4 VH with Ab6 light chain (antibody)
heavy: B1 heavy with T257S, E259T, V311P, W437Y
light: not shown
notes: hIgG1
B13: hIgG1 P257A/V308P/M428L/N434Y, O4 VH with Ab6 light chain (antibody)
heavy: B1 heavy with Y255M, T257S, E259T, P260A, V311P, M431L, W437Y
light: not shown
notes: hIgG1
B14: hIgG1 M252Y/T256Y/V308P/N434W, O4 VH with Ab6 light chain (antibody)
heavy: B1 heavy with T257S, E259Y, V311P
light: not shown
notes: hIgG1
B15: hIgG1 M252Y/T256R/V308P/N434W, O4 VH with Ab6 light chain (antibody)
heavy: B1 heavy with T257S, E259R, V311P
light: not shown
notes: hIgG1
B16: hIgG1 M252Y/T256P/V308P/N434W, O4 VH with Ab6 light chain (antibody)
heavy: B1 heavy with T257S, E259P, V311P
light: not shown
notes: hIgG1

target: T1, human FcRn protein (human, UniProt P55899 24-297, limits assumed); assay: SPR, Ab on Protein L chip, hFcRn in flow, pH 6.0
T1 construct: source and construct not described; also called hFcRn; FCGRT
T1 sequence (P55899 24-297 limits assumed, chain 1 of 2): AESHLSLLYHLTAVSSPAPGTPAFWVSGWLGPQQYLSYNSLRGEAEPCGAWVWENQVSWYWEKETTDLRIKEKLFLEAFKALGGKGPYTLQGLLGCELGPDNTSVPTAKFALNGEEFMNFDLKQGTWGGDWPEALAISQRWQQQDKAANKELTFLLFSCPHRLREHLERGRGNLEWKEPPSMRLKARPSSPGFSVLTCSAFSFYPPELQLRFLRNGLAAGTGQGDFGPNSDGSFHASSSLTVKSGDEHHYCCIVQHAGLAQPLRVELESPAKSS
T1 sequence (chain, as listed by the source limits assumed, chain 2 of 2): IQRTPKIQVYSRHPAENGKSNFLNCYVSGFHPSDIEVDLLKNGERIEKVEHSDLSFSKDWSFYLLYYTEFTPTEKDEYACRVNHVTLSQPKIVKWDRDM
Protocol: (§1) The interaction between human immunoglobulin proteins and FcRn is known to be affected by the pH of their environment solution. To test whether this pH-dependent interaction correlates with the quantity of antibody variants in the brain parenchyma after in vivo administration, the affinity of certain variants towards FcRn were screened at pH 6.0 and pH 7.4 on a Biacore T200 system (GE Healthcare). All experiments were conducted at 25′ C. Antibodies were expressed and purified using the Expi293 expression system as described in Example 1. Cells were transfected with a heavy chain comprising the variable region of the 04 antibody used in Example 2 [SEQ ID NO: 1] fused to a heavy chain region bearing the indicated substitution in Table 11 and a light chain from Ab6 [SEQ TD NO: 24]. Although the CH sequences listed in Table 11 include the terminal lysine (K447), this terminal lysine was truncated during the cloning process for each of these variants for the purposes of this experiment. Antibody proteins were captured at a flow rate of 10 μL/min on a Protein L chip to a surface density of approximately 100 RU. Experiments conducted at pH 7.4 were conducted in PBST (1.06 mMKH2PO4, 155.17 mM7NaCl, 2.97 mM 4Na2PO4-7H2O, and 0.005 Tween-20). […] The antibody-FcRn complex was allowed to dissociate for 20 s before the chip was regenerated with 10 mM glycine pH 1.7. On-rates (ka) and off-rates (kd) were estimated by the best fit to a one-to-one Langmuir binding model by simultaneous fitting of the association and dissociation sensograms. The dissociation constant (KD) for FcRn binding was then calculated as the ratio of the off rate to the on rate (kd/ka).

Binder	Kd [nM]	koff [s⁻¹]	kon [M⁻¹ s⁻¹]
B1	4.38	0.00655	1.49e+06
B2	2.2	0.00228	1.04e+06
B3	0.744	0.00128	1.71e+06
B4	0.767	0.00124	1.62e+06
B5	1.19	0.00211	1.77e+06
B6	0.426	0.000815	1.91e+06
B7	1.87	0.0024	1.29e+06
B8	1.25	0.00139	1.11e+06
B9	2.85	0.00351	1.23e+06
B10	1.23	0.00186	1.52e+06
B11	0.828	0.00125	1.51e+06
B12	1.51	0.00242	1.61e+06
B13	4.26	0.00706	1.66e+06
B14	0.754	0.00112	1.49e+06
B15	0.433	0.001	2.31e+06
B16	0.0414	3.83e-05	927000

target: T1, human FcRn protein; assay: SPR, Ab on Protein L chip, hFcRn in flow, pH 7.4
Protocol: as §1

Binder	Kd [nM]	koff [s⁻¹]	kon [M⁻¹ s⁻¹]
B2	103	0.19	1.82e+06
B3	70.2	0.0341	486000
B4	730000	3.11	4260
B5	52.1	0.0338	650000
B6	90.1	0.08	893000
B7	68.7	0.0327	476000
B8	202	0.2	977000
B9	137	0.0868	634000
B10	84.5	0.0564	668000
B11	37.2	0.28	7.62e+06
B12	10300	0.748	72600
B13	239	0.0545	228000
B14	202	0.08	395000
B16	49.8	0.02	442000
